{
  "source": "patent US20230406912A1",
  "about": "“HUMANISED ANTIBODIES AGAINST PATHOGENIC FUNGI” (priority 2020, published 2023)",
  "key": {"C. auris [1]": {"tested_on": "C. auris", "assay": "EUCAST antifungal MIC assay, drug alone and combined with hmAb 2G8", "assay_type": "cell-based", "conditions": "Candidozyma auris; 48 hours, drug alone; read-out: MIC50", "protocol": "To evaluate the susceptibility of C. auris to caspofungin, amphotericin B and their combination with hmAb 2G8, we followed the EUCAST antifungal MIC method (EUCAST E.DEF. 7.3). Antifungal drugs were purchased from Sigma-Aldrich.\nThe caspofungin and amphotericin B range concentrations analysed were reported in EUCAST document. Those concentrations were tested alone and in combination with 0.25, 2.5, 25 and 250 μg/ml of humanised antibody.\nThe plates microdilution and the yeast inoculum were prepared as reported in EUCAST document. The wells with 100 μl of 2X final antifungal drugs concentration in RPMI 2% G medium were inoculated with 100 μl (1-5×10^5 CFU/ml) of yeast suspension of C. auris. The monoclonal antibody was added to the samples of yeast suspension to test the combination drug-antibody. The plates were incubated at 37° C. for 24 and 48 hours and read after incubation at 405 nm. The assays were performed in triplicate.\nAs reported in EUCAST, echinocandins' MIC50 is the lowest drug concentration giving inhibition of≥50% of that of the drug-free control (dotted line). For amphotericin B, MIC50 is the same as for echinocandins while MIC90 is considered as the lowest concentration giving a growth inhibition of≥90% of that of the drug-free control (dotted bold line). […] At 48 hours (D), amphotericin B alone has its MIC50 and 90 at 1 μg/ml."}, "C. auris [2]": {"tested_on": "C. auris", "assay": "Time-kill curve, drug alone and combined with hmAb 2G8", "assay_type": "cell-based", "from_the_text": "To support and deepen the data coming from MIC assays, a time-kill curve was elaborated to evaluate how the hmAb 2G8 combined with caspofungin or amphotericin B could improve their basal activity on C. auris."}, "C. auris [3]": {"tested_on": "C. auris", "conditions": "different C. auris strains, literature; cited from earlier work"}, "[4]": {"assay": "ELISA assay on laminarin-coated plates", "assay_type": "binding", "conditions": "for activity in ELISA test: recombinant antibody, laminarin-coated plates; for Abs 405 nm: ELISA of supernatants of humanised mAbs", "protocol": "The activity of the purified antibody was then tested by ELISA assay. 96-well plates were coated with 50 μg/ml Laminarin (Sigma-Aldrich, L9634) in 0.05 M carbonate buffer pH 9.6 overnight at 4° C. Nonspecific interactions were blocked with 100 μL/well blocking solution, 3% (w/v) BSA in PBS-Tween 20 (8 g/L NaCl, 0.2 g/L KH2PO4, 2.9 g/L Na2HPO4·12 H2O, 0.2 g/L KCI, 0.05% (v/v) Tween 20, pH 7.4) at 37° C. for 1 h. The plates were then incubated with decreasing concentrations of hmAb 2G8_first approach (comparative purpose) (from 3.12 μg/ml to 0.003 μg/ml, each concentration was tested in triplicate) in blocking solution for 2 h at 37° C. At the same temperature and for the same time, 100 μL Goat anti-human-HRP diluted 1:1000 in blocking solution was poured in each well. After every single passage the plates were washed 5 times with PBS-Tween 20. To reveal the binding, 100 μl of 5 mg-ABTS tablet (Roche Diagnostics) dissolved in 12 ml of sodium citrate (0.05 M, pH 3) and supplemented with 1:1000 dilution hydrogen peroxide (Carlo Erba) was added and after 15, 30, 45 and 60 min the absorbance at 405 nm was measured. For the whole measuring time the plates were left in the dark. IC50 analysis of ELISA test was performed with Prism. The TEST was performed in triplicate.\nThe surnatants collected from the obtained humanised mAb were tested in ELISA test.\nFour supernatants from hmAb according to the invention (H5/K3; H5/K1; H5/K7; H5/K5) were purified to confirm the data. 8 scalar dilutions, starting from 5 μg/ml, were tested.\nThe purified humanised mAb 2G8 H5/K1 was then tested in an ELISA assay using laminarin as a target."}},
  "data": [
    {"molecule": "CC[C@H](C)C[C@H](C)CCCCCCCCC(=O)N[C@H]1C[C@@H](O)[C@@H](NCCN)NC(=O)[C@@H]2[C@@H](O)CCN2C(=O)[C@H]([C@H](O)CCN)NC(=O)[C@H]([C@H](O)[C@@H](O)c2ccc(O)cc2)NC(=O)[C@@H]2C[C@@H](O)CN2C(=O)[C@H]([C@@H](C)O)NC1=O", "note": "[caspofungin]", "values": [
      {"measurement": "MIC50", "setting": "C. auris [1]", "value": 0.25, "unit": "µg/mL"},
      {"measurement": "fungistatic effect, log (time-kill curve)", "setting": "C. auris [2]; CAS 0.125 μg/ml, 24 h", "value": "−1.88"},
      {"measurement": "fungistatic effect, log (time-kill curve)", "setting": "C. auris [2]; CAS 0.125 μg/ml, 48 h", "value": "−2.10"},
      {"measurement": "fungistatic effect, log (time-kill curve)", "setting": "C. auris [2]; CAS 0.25 μg/ml, 24 h, combination with 250 μg/ml hmAb 2G8 H5K1", "value": "−1.11"},
      {"measurement": "fungistatic effect, log (time-kill curve)", "setting": "C. auris [2]; CAS 0.25 μg/ml, 48 h, combination with 250 μg/ml hmAb 2G8 H5K1", "value": "−1.71"}
    ]},
    {"molecule": "C[C@@H](c1ncncc1F)[C@](O)(Cn1cncn1)c1ccc(F)cc1F", "note": "[voriconazole]", "values": [
      {"measurement": "MIC", "setting": "C. auris [3]", "value": "about 16 mg/L"}
    ]},
    {"molecule": "H3/K3: humanised recombinant Ab, second approach; VH H3 (SEQ ID NO: 20), VL K3 (SEQ ID NO: 19) (antibody, V domains shown, VH-H3; VL-K3) VH: QVQLVQSGAEVKKPGASVKVSCKASGYTLSSYWIHWVRQAPGQGLEWIGWILPGSGSTNYAQKFQGKATITADKSTSTAYMELSSLRSEDTAVYYCAREGWYFDVWGQGTLVTVSS VL: DIVMTQTPLSLSVTPGQPASISCKSSQSLLYSNGNTHLNWYLQRPGQSPQLLIYLVSNRASGVPDRFTGSGSGTDFTLKISRVEAEDVGVYYCVQGTHFPYTFGGGTKVEIK", "values": [
      {"measurement": "activity in ELISA test", "setting": "[4]", "value": "not active"}
    ]},
    {"molecule": "H5 K3: humanised mAb combining heavy chain H5 (SEQ ID NO: 22) and light chain K3 (SEQ ID NO: 19) (antibody, V domains shown, VH-H5; VL-K3) VH: QVQLQQSGAELKKPGASVKISCKASGYTLSSYWLEWVRQRPGQGLEWIGEILPGSGSTNYNEKFKGRATFTADTSTNTAYMELSSLTSEDSAVYYCAREGWYFDVWGQGTTVTVSS VL: DIVMTQTPLSLSVTPGQPASISCKSSQSLLYSNGNTHLNWYLQRPGQSPQLLIYLVSNRASGVPDRFTGSGSGTDFTLKISRVEAEDVGVYYCVQGTHFPYTFGGGTKVEIK", "values": [
      {"measurement": "Abs 405 nm", "setting": "[4]", "value": 2.47}
    ]},
    {"molecule": "H1 K1: humanised mAb, first approach CDR-grafting; VH H1 (SEQ ID NO: 16), VL K1 (SEQ ID NO: 15) (antibody, V domains shown, VH-H1; VL-K1) VH: QVQLVQSGAEVKKPGASVKVSCKASGYTLSSYWMHWVRQAPGQGLEWMGIILPGSGSTSYAQKFQGRVTMTRDTSTSTVYMELSSLRSEDTAVYYCAREGWYFDVWGAGTTVTVSS VL: DVVMTQSPLSLPVTLGQPASISCRSSQSLLYSNGNTHLNWFQQRPGQSPRRLIYLVSNRDSGVPDRFSGSGSGTDFTLKISRVEAEDVGVYYCVQGTHFPYTFGGGTKLEIK", "values": [
      {"measurement": "Abs 405 nm", "setting": "[4]", "value": 0.35},
      {"measurement": "activity in ELISA test", "setting": "[4]", "value": "not active"}
    ]},
    {"molecule": "H5 K7: humanised mAb combining heavy chain H5 (SEQ ID NO: 22) and light chain K7 (SEQ ID NO: 25) (antibody, V domains shown, VH-H5; VL-K7) VH: QVQLQQSGAELKKPGASVKISCKASGYTLSSYWLEWVRQRPGQGLEWIGEILPGSGSTNYNEKFKGRATFTADTSTNTAYMELSSLTSEDSAVYYCAREGWYFDVWGQGTTVTVSS VL: DIVMTQSPLSLPVTLGQPASISCKSSQSLLYSNGNTHLNWYLQRPGQSPKRLIYLVSKLDSGVPDRFSGSGSGTDFTLKISRVEAEDVGVYYCVQGTHFPYTFGGGTKLEIK", "values": [
      {"measurement": "Abs 405 nm", "setting": "[4]", "value": 0.82}
    ]},
    {"molecule": "H5 K5: humanised mAb, third approach (Kabat); VH H5 (SEQ ID NO: 22), VL K5 (SEQ ID NO: 21) (antibody, V domains shown, VH-H5; VL-K5) VH: QVQLQQSGAELKKPGASVKISCKASGYTLSSYWLEWVRQRPGQGLEWIGEILPGSGSTNYNEKFKGRATFTADTSTNTAYMELSSLTSEDSAVYYCAREGWYFDVWGQGTTVTVSS VL: DIVMTQSPLSLPVTLGQPASISCKSSQSLLYSNGNTHLNWYQQRPGQSPRRLIYLVSKLDSGVPDRFSGSGSGTDFTLKISRVEAEDVGVYYCVQGTHFPYTFGGGTKLEIK", "values": [
      {"measurement": "activity / affinity compared with murine 2G8", "setting": "[4]; ELISA", "value": "lower than the activity observed for the murine 2G8"},
      {"measurement": "Abs 405 nm", "setting": "[4]", "value": 1.61},
      {"measurement": "activity in ELISA test", "setting": "[4]", "value": "showed some activity"}
    ]},
    {"molecule": "H6 K1: humanised mAb combining heavy chain H6 (SEQ ID NO: 24) and light chain K1 (SEQ ID NO: 15) (antibody, V domains shown, VH-H6; VL-K1) VH: QVQLQQSGAELKKPGASVKISCKASGYTLSSYWIHWVRQRPGQGLEWIGEILPGSGSTNYNEKFKGRATFTADTSTNTAYMELSSLTSEDSAVYYCAREGWYFDVWGQGTTVTVSS VL: DVVMTQSPLSLPVTLGQPASISCRSSQSLLYSNGNTHLNWFQQRPGQSPRRLIYLVSNRDSGVPDRFSGSGSGTDFTLKISRVEAEDVGVYYCVQGTHFPYTFGGGTKLEIK", "values": [
      {"measurement": "Abs 405 nm", "setting": "[4]", "value": 0.27}
    ]},
    {"molecule": "H3 K1: humanised mAb combining heavy chain H3 (SEQ ID NO: 20) and light chain K1 (SEQ ID NO: 15) (antibody, V domains shown, VH-H3; VL-K1) VH: QVQLVQSGAEVKKPGASVKVSCKASGYTLSSYWIHWVRQAPGQGLEWIGWILPGSGSTNYAQKFQGKATITADKSTSTAYMELSSLRSEDTAVYYCAREGWYFDVWGQGTLVTVSS VL: DVVMTQSPLSLPVTLGQPASISCRSSQSLLYSNGNTHLNWFQQRPGQSPRRLIYLVSNRDSGVPDRFSGSGSGTDFTLKISRVEAEDVGVYYCVQGTHFPYTFGGGTKLEIK", "values": [
      {"measurement": "Abs 405 nm", "setting": "[4]", "value": 0.4}
    ]}
  ]
}
